Results as given in patent US20230340419A1, “METHODS FOR GENERATION OF MOUSE AND HUMAN URETERIC BUD ORGANOIDS AND COLLECTING DUCT ORGANOIDS” (University of Southern California, priority 2020, published 2023).

B1: FGF10: member of the FGF family (protein, UniProt O15520 38-208, looked up)
Fibroblast growth factor 10: QALGQDMVSPEATNSSSSSFSSPSSAGRHVRSYNHLQGDVRWRKLFSFTKYFLKIEKNGKVSGTKKENCPYSILEITSVEIGVVAVKAINSNYYLAMNKKGKLYGSKEFNNDCKLKERIEENGYNTYASFNWQHNGRQMYVALNGKGAPRRGQKTRRKNTSAHFLPMVVHS
B2: GDNF: glial cell-derived neurotrophic factor (protein, UniProt P39905 78-211, looked up)
Glial cell line-derived …: SPDKQMAVLPRRERNRQAAAANPENSRGKGRRGQRGKNRGCVLTAIHLNVTDLGLGYETKEELIFRYCSGSCDAAETTYDKILKNLSRNRRLVSDKVGQACCRPIAFDDDLSFLDDNLVYHILRKHSAKRCGCI
B3: FGF8: member of the FGF family (protein, UniProt P55075 23-233, looked up)
Fibroblast growth factor 8: QEGPGRGPALGRELASLFRAGREPQGVSQQHVREQSLVTDQLSRRLIRTYQLYSRTSGKHVQVLANKRINAMAEDGDPFAKLIVETDTFGSRVRVRGAETGLYICMNKKGKLIAKSNGKGKDCVFTEIVLENNYTALQNAKYEGWYMAFTRKGRPRKGSKTRQHQREVHFMKRLPRGHHTTEQSLRFEFLNYPPFTRSLRGSQRTWAPEPR
B4: BMP7: growth factor tested in screening (protein, UniProt P18075 293-431, looked up)
Bone morphogenetic protein 7: STGSKQRSQNRSKTPKNQEALRMANVAENSSSDQRQACKKHELYVSFRDLGWQDWIIAPEGYAAYYCEGECAFPLNSYMNATNHAIVQTLVHFINPETVPKPCCAPTQLNAISVLYFDDSSNVILKKYRNMVVRACGCH
B5: R-Spondin 1: UBCM component (protein, UniProt Q2MKA7 21-263, looked up)
R-spondin-1: SRGIKGKRQRRISAEGSQACAKGCELCSEVNGCLKCSPKLFILLERNDIRQVGVCLPSCPPGYFDARNPDMNKCIKCKIEHCEACFSHNFCTKCKEGLYLHKGRCYPACPEGSSAANGTMECSSPAQCEMSEWSPWGPCSKKQQLCGFRRGSEERTRRVLHAPVGDHAACSDTKETRRCTVRRVPCPEGQKRRKGGQGRRENANRNLARKESKEAGAGSRRRKGQQQQQQQGTVGPLTSAGPA
B6: FGF4: member of the FGF family (protein, UniProt P08620 31-206, looked up)
Fibroblast growth factor 4: APTAPNGTLEAELERRWESLVALSLARLPVAAQPKEAAVQSGAGDYLLGIKRLRRLYCNVGIGFHLQALPDGRIGGAHADTRDSLLELSPVERGVVSIFGVASRFFVAMSSKGKLYGSPFFTDECTFKEILLPNNYNAYESYKYPGMFIALSKNGKTKKGNRVSPTMKVTHFLPRL

What was measured:
Type in all cases: cell-based, mouse
[1] = system: Wnt11-RFP UB organoid; assay: Stage III 1st round screening of growth factors and small molecules for UB organoid culture condition; details: reagent added to FGF9 + C3 + TTNPB + GDNF; compared to that control group
Description: We employed this Wnt11-RFP reporter system as a readout to screen for a culture condition that maintained the progenitor identity of UPCs in vitro. T-shaped UBs were manually isolated from E11.5 kidneys of Wnt11-RFP mice, and immediately embedded into Matrigel to set up a 3D culture platform that supported epithelial branching. In this 3D culture format, built on previous efforts towards the ex vivo culture of UB, hundreds of different combinations of growth factors and small molecules were tested (see also the Materials and Techniques section below for details under subheading “Screening for optimal UB culture condition”).
We systematically screened the optimal UB culture condition in four different stages (Stages I-IV).
In Stage III, based on the optimized recipe consisting of FGF9, TTNPB, CHIR99021 (3 μM) and GDNF, we preformed our 1st round of screening of growth factors and small molecules targeting major developmental pathways (e.g. TGF-β, BMP, Wnt, FGF, Hedgehog and Notch) and others. The branching morphogenesis, growth rate and Wnt11-RFP were recorded as readouts (Table 1). […] Representative images were taken at least for LDN193189, A83-01, and R-Spondin 1. These individual hits were then subjected to a 2nd round of screening to test their effects in various combinations, eventually leading to the identification of the optimal UB progenitor culture medium UBCM consisting of FGF9, TTNPB, CHIR99021 (3 μM), GDNF, LDN193189, A83-01, R-Spondin1, JAKI and SB202190.

[2] = system: Wnt11-RFP UB organoid; assay: Withdrawal of individual components from UBCM (Stage IV validation); details: component withdrawn from UBCM
Description: To determine whether UBCM culture conditions enabled clonal growth from a single UPC, dissociated E11.5 UBs were embedded at clonal density in Matrigel and cultured in UBCM medium. Around 30% of the single cells self-organized into E11.5 UB-like budding structures within 5 days, though a smaller percentage (3-5%) maintained Wnt11-RFP (FIG. 1G), an efficiency similar to clonal organoid formation for Lgr5^+ intestinal stem cells. Importantly, the clonally-derived Wnt11-RFP^+ budding structures were identical to intact E11.5 UB-derived organoids in both branching morphology and growth rate (Table 3, FIG. 1H).
Lastly, in Stage IV, we asked whether each of the components in UBCM was essential.

[3] = system: UB organoids; assay: 2nd round of CD differentiation condition screening (qRT-PCR of Aqp2 and Foxi1); details: qRT-PCR, 7 days, under hBI+FGF9+Y27632 condition
Protocol: The functions of the mature renal CD system are carried out by two major cell populations that are intermingled throughout the entire CD network. The more abundant principal cells (PCs) concentrate the urine and regulate Na^+/K^+ homeostasis via water and Na^+/K^+ transporters. The less abundant α- and β-intercalated cells (ICs) regulate normal acid-base homeostasis via secretion of H^+ or HCO3^− into the urine. The absence of an in vitro system recapitulating PC and IC development in an appropriate 3D context, constrains physiological exploration, disease modeling and drug screening on the renal CD system. With this limitation in mind, we developed a screen to establish conditions supporting the differentiation of CD organoids, assaying expression of Aqp2 and Foxi1, definitive markers for PC and IC lineages, respectively, by quantitative reverse transcription PCR (qRT-PCR), following 7 days of culture under variable but defined culture conditions (FIG. 2A).
Agonists or antagonists targeting major developmental pathways (e.g. TGF-β, BMP, Wnt, FGF, Hedgehog and Notch) were tested, together with hormonal inputs known to regulate PC or IC activity (aldosterone and vasopressin).

Row | Molecule | Wnt11-RFP [1] | other results
1 | B1 | Worse | Organoid growth [1]: Slower
2 | B2 |  | Effect of withdrawal of the component from UBCM on organoid growth [2]: growth arrest
3 | B3 | Worse | 
4 | B4 | Better | Aqp2 expression [3]: dramatically increased; Foxi1 expression [3]: dramatically increased
5 | B5 | Better | 
6 | B6 | Worse | 
